From the nanobody polyreactivity screen of Harvey et al. (2022) come the findings set out here.

The data set is described as follows: yeast display, Sf9 membrane polyspecificity reagent, FACS + sequencing; frameworks hold sequencing errors. The procedure, abridged: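 A nanobody's polyreactivity label depends on the gate it was sorted from. Yeast display cells were stained with 10% biotinylated, detergent-solubilized Sf9 membrane reagent for 1 hour at 4 °C, enriched on streptavidin microbeads and sorted by FACS. The low and high (top ~1%) gates were set on anti-HA fluorescence for expression and streptavidin fluorescence for reagent binding.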
For “QVQLVESGGGLVQAGGSLRLSCAASGFIFWYNAMGWYRPAPGKEREFVAAISSGGSTTYADSVKGRFTISRDNAKNTVYLQMNSLKPEDTAVYYCAAGSYDYDYWGQGTQVTVSS”, the “polyreactivity (PSR sort gate)” value was “low polyreactivity”. With “QVQLVESGGGLVQAGGSLRLSCAASGFIFWYYAMGWYRPAPGKERELVATITRGGSTYYADSVKGRFTISRDNAKNTVYLQLNSLKPEDTAVYYCNAVRPKIYDYWGQGTQVTLSS” the entry was “high polyreactivity”. On to “QVQLVESGGGLVQAGGSLRLSCAASGFIFWYYAMGWYRQAPGKERELVATITSGGSTTYADSVKGRFTISRDNAKNTVYLQMNSLKPEDTAVYYCAAKGISRYDWGQGTQVTVSS”, for which the “polyreactivity (PSR sort gate)” value is reported as “low polyreactivity”. With “QVQLVESGGGLVQAGGSLRLSCAASGFIFYANAMGWYRQAPGKERELVAAITWSGSRTYYADSVKGRFTISRDNAKNTVYLQMNSLKPEDTAVYYCNKDWYVGSFGYPEDYWGQGTQVSVSS” the entry was “low polyreactivity”; with “QVQLVESGGGLVQAGGSLRLSCAASGFIFYAYAMGWYRQAPGKERELVAAISYSGGSTYYADSVKGRFTISRDNAKNTVYLQMNSLKPEDTAVYYCNTVSYGYSSKLYDYWGQGTLVTVSS”, “high polyreactivity”; with “QVQLVESGGGLVQAGGSLRLSCAASGFIFYAYTMGWYRQAPGKERELVAAISRSGGRTYYADSVKGRFTISRDNAKNTVYLQMNSLKPEDTAVYYCAAEYRGVPRVVVDYDYWGQGTQVTVSS”, “high polyreactivity”. On to “QVQLVESGGGLVQAGGSLRLSCAASGFIFYDNAMGWYRQAPGKERELVAAIDWSGDSTYYADSVKGRFTISRDNAKNTVYLQMNSLKPEDTAVYYCAADSQDPGDYYLFDYWGQGTQVTVSS”, for which the “polyreactivity (PSR sort gate)” value is “low polyreactivity”.

With “QVQLVESGGGLVQAGGSLRLSCAASGFIFYDYAMGWYRQAPGKERELVAAIRSSDGGTYYADSEKGPFTISRDNAKNTVYLQMNSLKPEDTAVDYCAAEIRWGWHPYYDYDEYWGQGTLVTVSS”, the “polyreactivity (PSR sort gate)” value was “low polyreactivity”. As for “QVQLVESGGGLVQAGGSLRLSCAASGFIFYDYDMGWYRQAPGKEREFVAAITYSGGSTYYADSVKGRFTISRDNAKNTVYLQMNCLKPEDTAFYYCADVKSRYAEAVDYFYWGQGTHVTVSS”, the “polyreactivity (PSR sort gate)” value is reported as “low polyreactivity”.

For “QVQLVESGGGLVQAGGSLRLSCAASGFIFYHYAMGWYRQAPGKERELVAAISGRGGSTYYADSVKGRFTISRDNAKNTVYLQMNSLKPEDTAVYYCATDYSRTFDYWGQGTQVTVSS”, the “polyreactivity (PSR sort gate)” value was “high polyreactivity”. The value for “QVQLVESGGGLVQAGGSLRLSCAASGFIFYKNAMGWYRQAPGKERQLVAAINFSTGRTYYADSVKGRFTISRDNAKNTVYLQMNSLKPEDTAVYYCASKSANPRKYYYWGQGTQVTVSS” was “high polyreactivity”. “QVQLVESGGGLVQAGGSLRLSCAASGFIFYKYAMGWYRQAPGKERELVAAISKRGGSTYYADSVKGRFTISRDNAKNTVYLQMNSLKPEDNAVYYCATVGGNSGTVRYFASDYWGQGTKVTVSS”: the “polyreactivity (PSR sort gate)” value is “high polyreactivity”. The value for “QVQLVESGGGLVQAGGSLRLSCAASGFIFYKYAMGWYRQAPGKERELVAAISRGGTTTYADSVKGRFTISRDNAKNTVYLQMNSLKPEDTAVYYCNKYFRYRYDYWGQGTQVTVSS” was “high polyreactivity”.

For “QVQLVESGGGLVQAGGSLRLSCAASGFIFYKYAMGWYRQAPGKERELVAAITRRGGSTYYADSVKGRFTISRDNAKNTVYLQMNSLKPEDTAVYYCAKYIYGYKDSPLGDDYWGQGTQVTVSS”, the “polyreactivity (PSR sort gate)” value is listed as “high polyreactivity”. Take “QVQLVESGGGLVQAGGSLRLSCAASGFIFYKYAMGWYRQAPRKEREFVASISGSGGRTYYADSVKGRFTISRDNAKNTVYLQMNSLKPEDTAVYYCAVDLLRRGFPTVVTTYDYWGQGTQVTVSS”: the “polyreactivity (PSR sort gate)” value is “high polyreactivity”.

In the case of “QVQLVESGGGLVQAGGSLRLSCAASGFIFYLYAMGWYRQAPGKEMELVAAISWGGGTTYYADSVKGRFTISRDNAKNTVYLKMNSLKPEDTAVYYCAAETEYYSYRFDYWGQGTQVTVSS”, the “polyreactivity (PSR sort gate)” value is “high polyreactivity”. Turning to “QVQLVESGGGLVQAGGSLRLSCAASGFIFYNYAMGWSRQAPGKERELVAAITGGGSTNYADSVKGRFTISRDNAKTTVYLQMNSLKPEDTAVYYCAAEEGPPWSRYDYWGQGTQVTVSS”, the “polyreactivity (PSR sort gate)” value is on record as “low polyreactivity”. The value for “QVQLVESGGGLVQAGGSLRLSCAASGFIFYNYAMGWYRQAPGKERELVAAISASGGRTYYADSVKGRFTISRDNAKNTVYLQMHRLKPEDTAVYYCIARVKYKGYDYWGQGTQVTVSS” was “high polyreactivity”. “QVQLVESGGGLVQAGGSLRLSCAASGFIFYPNAMGWYRQAPGKERELVAAISSSTGSTYYADSVKGRFTISRDNAKNTVYLQMNSLNRVDTAGYYCAADLEYYPIGGDLQEREYWGQGTQVTVSS”: the “polyreactivity (PSR sort gate)” value was “low polyreactivity”. Turning to “QVQLVESGGGLVQAGGSLRLSCAASGFIFYRDAMGWYRPAPGKERELVAAISSRGVSTYYADSVKGRFTISRDNAKNTVYLLMNSLKPEDTAVYSCARISRYYALYDYWGQGTQVTVSS”, the “polyreactivity (PSR sort gate)” value was “high polyreactivity”. Regarding “QVQLVESGGGLVQAGGSLRLSCAASGFIFYRNTMGWYRQAPGKEREFVAAIRWRGGSSYYADSVKGRFTISRDNAKNTVYLQMNSLKPEDTAVYYCAADTRPGYSGFEYWGQGTQVTVSS”, the “polyreactivity (PSR sort gate)” value is given as “high polyreactivity”.

For the sequence “QVQLVESGGGLVQAGGSLRLSCAASGFIFYRNTMGWYRQAPGKEREFVAAIRWRGGSTYYADSVKGRFTISRDNAKNTFYLQLNSVKPEDTAVYYCAADTRPGYSGFEYWGQGTQVTVSS”, the “polyreactivity (PSR sort gate)” value is recorded as “high polyreactivity”.

For the sequence “QVQLVESGGGLVQAGGSLRLSCAASGFIFYRYAMGWSRQAPGKERELVAAISYRGGSTYYADSVKGRFTISRDIAKNTVYLQMNSLKAEDTAFYYCAAPGLYSRLDYWGQGTQVTVSS”, the “polyreactivity (PSR sort gate)” value is “high polyreactivity”. Consider “QVQLVESGGGLVQAGGSLRLSCAASGFIFYRYAMGWYRQAPGKEREFVAVISRSGDRTNYADSVKGRFTISRDNAKNTVYLQMNSLKPEDTAVYYCNTDSRSAHGYWGQGTQVTVSS”, for which the “polyreactivity (PSR sort gate)” value is “high polyreactivity”. With “QVQLVESGGGLVQAGGSLRLSCAASGFIFYRYAMGWYRQAPGKERELVAAISRGDSTYYADSVKGRFTISRDNAKNTVYLQMNSLKPEDTAVYYCNADRPRYTYRATTYTGRYDYWGQGTQVTVSS”, the “polyreactivity (PSR sort gate)” value is listed as “low polyreactivity”. The value for “QVQLVESGGGLVQAGGSLRLSCAASGFIFYRYAMGWYRQAPGKERELVAAISRSGGSTYYADSVKGRFTISRDNAKNTVYLQMNSLKPEDTAVYYCAADRGSLAPGNDYWGQGNQVTVSS” was “high polyreactivity”; that for “QVQLVESGGGLVQAGGSLRLSCAASGFIFYRYAMGWYRQAPGKERELVAAISSSGGSTYYADSVKGRFTISRDNAKNTVYLQMNSLKPEDTAVYYCNKRPQQYSPGYDYWGQGTQVTVSS” was “high polyreactivity”. Regarding “QVQLVESGGGLVQAGGSLRLSCAASGFIFYRYAMGWYRQAPGKERELVAAISTLGGSTFYADSVKGRFTISRDNAKNTVYLQMISLKPEDTAVYYCATGPLRAYDYWGQGTQVTVSS”, the “polyreactivity (PSR sort gate)” value is reported as “high polyreactivity”.

For “QVQLVESGGGLVQAGGSLRLSCAASGFIFYRYAMGWYRQAPGKERELVASITKRGGSTRYADSVKGRFTISRDNAKNTVYLQMNSLKPEDTAVYYCAKVPYSTAFDYWGQGTQVTVSS”, the “polyreactivity (PSR sort gate)” value is given as “high polyreactivity”. With “QVQLVESGGGLVQAGGSLRLSCAASGFIFYRYAMGWYRQAPGKESELVAAISRSGGSKYYADSVKGRFTISRDLANNTVYLQLNSLKPEDTAVYYCATPVHRKLYLVNYWGQGTQVTVSS” the entry was “low polyreactivity”; with “QVQLVESGGGLVQAGGSLRLSCAASGFIFYSNAMGWYRQAPGKDRELVASITGDGGTTYYADSVKGRFTISRDKAKNTVYLQMNSLKPEATAVYYCAKDYIYRGYYTDFRYEDYDYWGPGTQVTVSS”, “low polyreactivity”; with “QVQLVESGGGLVQAGGSLRLSCAASGFIFYSNAMGWYRQAPGKERELVAAIRSTGSTSYADSVKGRFTISRDNAKNTVYLQMNSLKPEDTAVYYCAKVRYWRGYDYWGQGTQVTVSS”, “high polyreactivity”.

“QVQLVESGGGLVQAGGSLRLSCAASGFIFYSNAMGWYRQEPGKERELVAAITSGGGSTYYADSVKGRFTISRDNAKNTVYLQMNSLKPEDTAVYYCAVSIGRYPYRYGYWGQGTQVTVSS”: the “polyreactivity (PSR sort gate)” value is “high polyreactivity”.

Take “QVQLVESGGGLVQAGGSLRLSCAASGFIFYSYAMGWNRQAPGKERELVADISRSGSTNYADSVKGRFTISRDNAKNTVYLQMNSLKPEDTAVYYCNKGYHSWSRLSQFGWSYDYWGQGTQVTVSS”: the “polyreactivity (PSR sort gate)” value is reported as “high polyreactivity”. With “QVQLVESGGGLVQAGGSLRLSCAASGFIFYSYAMGWYRQAPGKEREFVASISGRTGSTYYADSVKGRFTISRDNAKNTVYLQMNSLKPEDTAVYYCNARIVHSFRYDYWGQGTQVTVSS” the entry was “low polyreactivity”. The value for “QVQLVESGGGLVQAGGSLRLSCAASGFIFYSYAMGWYRQAPGKERELVATITSGGSTNYADSVKGRFTISRDNAKNTVYLQMNSLKPEDTAVYYCAARYYPFWARRNRYDYWGQGTQVTVSS” was “high polyreactivity”; that for “QVQLVESGGGLVQAGGSLRLSCAASGFIFYSYDMGWYRQAPGKERELVAANDSRGVNTYYADSVKGRFTISRDNAKNTVYLQMNSLKPEDTAVYYCAAQASSQIDYYGGHYGYWGQGTQVTVSS” was “low polyreactivity”; that for “QVQLVESGGGLVQAGGSLRLSCAASGFIFYVYAMGWYRQAPGKERELVAAISADGGITYYADSVKGRFTISRDNAKNSVYFQMNSLKPEDTAVYYCNTLGDQDAYAGFRLDYWGQGTQVTVSS” was “low polyreactivity”. The value for “QVQLVESGGGLVQAGGSLRLSCAASGFIFYYDAMGWYIQAPGKERELVARIYSGRSTYYADSVKGRFTISRDNAKNTVYLQMNSLKPEDTAVYYCNATRLVWFSQGYDYWGQGTQVTVSS” was “high polyreactivity”. For the sequence “QVQLVESGGGLVQAGGSLRLSCAASGFIFYYNAMGWYRQAPGKERELVAAITRSGGSTYYADSVKGRFTISRDNAKNTVYLQMNSLKPEDTAVYYCAARVYPYHWSYYYWGQGTQVTVSS”, the “polyreactivity (PSR sort gate)” value is on record as “high polyreactivity”.

As to “QVQLVESGGGLVQAGGSLRLSCAASGFIFYYNAMGWYRQAPGKERELVARISSGSGTYYADSVKGRFTISRDNAKNTVYLQMNSLKPEDTAVYYCAARYPRGAMYYWGQGTQVTVSS”, the “polyreactivity (PSR sort gate)” value was “low polyreactivity”.
